Source: US20030104532A1 (CHILDREN S MEDICAL CENTER, published 2003)

T1: Human neuropilin-2 (NP-2) (human, UniProt O60462 21-931)
T1 sequence: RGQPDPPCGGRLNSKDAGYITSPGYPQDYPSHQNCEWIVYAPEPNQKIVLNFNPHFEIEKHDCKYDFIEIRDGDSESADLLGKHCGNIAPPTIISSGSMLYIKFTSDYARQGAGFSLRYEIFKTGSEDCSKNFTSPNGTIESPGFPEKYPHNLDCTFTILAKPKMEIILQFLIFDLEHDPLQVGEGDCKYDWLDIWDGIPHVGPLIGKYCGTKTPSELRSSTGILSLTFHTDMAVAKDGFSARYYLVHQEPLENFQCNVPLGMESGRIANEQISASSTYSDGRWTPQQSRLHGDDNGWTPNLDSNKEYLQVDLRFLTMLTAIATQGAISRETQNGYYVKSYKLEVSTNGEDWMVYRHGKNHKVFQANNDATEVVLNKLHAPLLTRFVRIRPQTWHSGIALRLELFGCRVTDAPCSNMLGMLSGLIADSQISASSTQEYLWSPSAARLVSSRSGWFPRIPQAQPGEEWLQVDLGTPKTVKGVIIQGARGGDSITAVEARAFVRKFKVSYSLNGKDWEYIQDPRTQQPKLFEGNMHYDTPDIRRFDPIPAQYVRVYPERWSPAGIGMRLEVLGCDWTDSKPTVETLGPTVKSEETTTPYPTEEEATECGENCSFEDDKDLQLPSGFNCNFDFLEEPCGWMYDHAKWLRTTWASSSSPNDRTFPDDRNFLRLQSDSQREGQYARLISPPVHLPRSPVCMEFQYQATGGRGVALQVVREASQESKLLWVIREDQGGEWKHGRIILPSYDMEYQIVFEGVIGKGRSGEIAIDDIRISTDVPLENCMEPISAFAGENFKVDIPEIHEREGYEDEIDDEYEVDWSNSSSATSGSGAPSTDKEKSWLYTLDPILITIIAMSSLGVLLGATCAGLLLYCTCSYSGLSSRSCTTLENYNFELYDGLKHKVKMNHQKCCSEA


What was measured:
[1] = biological target: T2, Human VEGF165R/NP-1 (neuropilin-1) (human, UniProt O14786 22-923); experiment: ^125I-VEGF121 binding and chemical cross-linking to PAE/NP-1 cells, SDS-PAGE, autoradiography
T2 construct: Expressed from the cDNA in PAE cells (PAE/NP-1, PAE/KDR/NP-1) and COS-7 cells; also called VEGF165 receptor; clone A2
Procedure: FIG. 8. […] The binding was carried out in the presence of 1 μg/ml heparin. […] The cells were lysed and proteins were resolved by 6% SDS-PAGE. The polyacrylamide gel was dried and exposed to X-ray film.

[2] = biological target: T2, Human VEGF165R/NP-1 (neuropilin-1); experiment: cell-based or functional assay
[3] = biological target: T3, Neuropilin-1 on Dunning rat prostate carcinoma AT3.1 cells (rat, UniProt Q9QWJ9 22-922); experiment: ^125I-VEGF165 cross-linking to Dunning rat prostate carcinoma cells
T3 construct: whole, on cells; also called VEGF165R/NP-1 (AT3.1 cells)

[4] = biological target: T2, Human VEGF165R/NP-1 (neuropilin-1); experiment: Scatchard analysis (LIGAND program) of ^125I-VEGF165 binding to PAE/NP-1 cells
Procedure: Scatchard Analysis of VEGF₁₆₅ Binding to VEGF₁₆₅R/NP-1.7A. Increasing amounts of ¹²⁵I-VEGF₁₆₅ (0.1-50 ng/ml) were added to subconfluent cultures of PAE cells transfected with human VEGF₁₆₅R/NP-1 cDNA (PAE/NP-1 cells) in 48 well dishes. Non-specific binding was determined by competition with a 200-fold excess of unlabeled VEGF₁₆₅. After binding, the cells were washed, lysed and the cell-associated radioactivity was determined using a y counter.
The specific activity ranged from 40,000-100,000 cpm/ng protein. […] VEGF binding was quantitated by measuring the cell-associated radioactivity in a y-counter (Beckman, Gamma 5500). The counts represent the average of three wells. All experiments were repeated at least three times and similar results were obtained.

[5] = biological target: T1, Human neuropilin-2 (NP-2); experiment: expression cloning: one of the seven single clones positive for ^125I-VEGF165 binding to transfected COS-7 cells
Procedure: The E. coli were sub-divided into 50 separate pools and plated onto 50 LB ampicillin dishes, with each pool representing approximately 100 clones. DNA made from these pools was transfected into COS-7 cells which were screened for ¹²⁵I-VEGF₁₆₅ binding as described above. […] Each pool was plated onto separate LB ampicillin dishes and DNA was prepared from 96 individual colonies and screened in a 96-well two dimensional grid for ¹²⁵I-VEGF₁₆₅ binding to tranfected COS-7 cells as described above. […] The seven positive plasmid clones were amplified and their DNA was analyzed by restriction enzyme digestion. […] One clone from each group was submitted for automated DNA sequencing.
E. coli transformed with the plasmid library were divided into pools.

Binder | binding result [1] | 231 breast carcinoma cell motility (Boyden chamber motility assay) [2] | binding result [3] | Kd [4] | binding result [5]
Human recombinant VEGF121 (ligand, UniProt P15692-9 27-147, looked up, radio-iodinated (^125I, IODO-BEADS) in the cross-linking experiments, mature) APMAEGGGQNHHEVVKFMDVYQRSYCHPIETLVDIFQEYPDEIEYIFKPSCVPLMRCGGCCNDEGLECVPTEESNITMQIMRIKPHQGQHIGEMSFLQHNKCECRPKKDRARQEKCDKPRR | no binding (tested: 10 ng/ml) |  |  |  | 
Human recombinant VEGF165 (ligand, UniProt P15692-4 27-191, looked up, radio-iodinated (^125I, IODO-BEADS) in the binding and cross-linking experiments; coupled to Sepharose beads in the affinity purification, mature) APMAEGGGQNHHEVVKFMDVYQRSYCHPIETLVDIFQEYPDEIEYIFKPSCVPLMRCGGCCNDEGLECVPTEESNITMQIMRIKPHQGQHIGEMSFLQHNKCECRPKKDRARQENPCGPCSERRKHLFVQDPQTCKCSCKNTDSRCKARQLELNERTCRCDKPRR |  | 2 fold | binds | ~320 pM | binds
